Reference: US20240132589A1 (ONCORESPONSE, published 2024)

Legend:
LILRB2-Fc protein [1] = target: T1, LILRB2-Fc protein (human, UniProt Q8N423 22-460, limits assumed); experiment: blocking ELISA, LILRB2-Fc binding to coated monomer HLA-G; Exp I
T1 construct: also called human LILRB2-Fc; not shown: Fc part
Description: (§1) Tumor-associated HLA-G is an HLA Class I ligand for LILRB2. Binding of HLA-G to LILRB2 induces an immune suppressive signal in LILRB2 expressing myeloid cells. To determine if the anti-LILRB2 antibodies block the HLA-G-LILRB2 interaction and prevent the induction of an inhibitory signal, blocking ELISA assays in a dose titration were performed. 384-well plates were coated with monomer HLA-G (Fred Hutchinson Cancer Research Center, No. bHLA-G) at a concentration of 5 μg/mL, diluted in PBS, then plates were incubated at RT for 1 hour. Plates were rinsed with Wash Buffer three times, then blocked with Blocking Buffer A for 30 minutes at RT. During blocking incubation step, LILRB2-Fc protein and antibody titrations were prepared in Blocking Buffer A. LILRB2-Fc protein was then incubated with antibody titrations for 30 minutes at RT to allow for binding prior to addition onto plate. Plates were rinsed three times with Wash Buffer, then 25 μL of protein/antibody mixture was added per well and incubated for 1 hour at RT. Following antibody incubation, plates were washed three times with Wash Buffer. Anti-human IgG Fc-HRP secondary antibody was diluted and added at 25 μL/well. Plates were incubated in the dark for 1 hour at RT. Following secondary antibody incubation, plates were washed four times with Wash Buffer. 25 μL/well ultra-neat TMB was added per well for development and incubated for 5 minutes at RT. Reaction was stopped using 0.3 M HCl (25 μL/well). Absorbance was read at 450 nm using the Envision. The IC₅₀ for HLA-G blocking by clone B2A-IgG4 was 0.066 μg/mL.
(§2) Select humanized IgG4 variant antibodies were tested for their ability to block binding of human LILRB2-Fc to monomer HLA-G by ELISA, using the method described in Example 7.

[2] = target: T2, Recombinant human LILRB2 protein (ELISA antigen) (human, UniProt Q8N423 22-460); experiment: ELISA, immobilized LILRB2-His; conditioned media of transient transfections
T2 construct: also called LILRB2-His; recombinant LILRB2
T2 sequence (Q8N423 other isoform, or with tags, fused parts or gaps limits assumed): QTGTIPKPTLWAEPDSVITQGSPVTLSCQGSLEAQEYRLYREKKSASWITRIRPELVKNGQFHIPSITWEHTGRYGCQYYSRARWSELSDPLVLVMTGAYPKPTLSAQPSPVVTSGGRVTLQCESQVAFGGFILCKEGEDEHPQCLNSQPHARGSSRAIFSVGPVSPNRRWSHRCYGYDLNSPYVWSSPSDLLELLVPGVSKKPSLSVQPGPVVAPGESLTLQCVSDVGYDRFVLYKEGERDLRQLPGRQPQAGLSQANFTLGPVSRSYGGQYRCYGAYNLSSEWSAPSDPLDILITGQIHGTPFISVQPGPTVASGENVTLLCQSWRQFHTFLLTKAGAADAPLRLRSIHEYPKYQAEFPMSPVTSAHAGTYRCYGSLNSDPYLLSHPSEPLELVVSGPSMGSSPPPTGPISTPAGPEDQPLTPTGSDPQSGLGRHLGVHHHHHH
Description: (§3) To confirm binding to human and cynomolgus LILRB2, antibodies in supernatants were evaluated for binding by enzyme-linked immunosorbent assay (ELISA). Recombinant LILRB2 proteins (human: SEQ ID NO: 48; cynomolgus) were diluted in PBS to 2 μg/mL and added to 384-well high-binding ELISA plates (Greiner Bio-One Microlon™) at 25 μL/well and incubated at 4° C. overnight. The plates were washed three times with Wash Buffer (0.05% Tween® 20 in PBS), using a microplate washer and then blocked with 90 μL/well of ELISA Blocking Buffer A (1% BSA in PBS) for 1 hour at room temperature (RT). After blocking, 25 μL/well of LILRB2 antibodies or isotype control were added to the plates and incubated for 1 hour at RT. After primary antibody binding, plates were washed three times with Wash Buffer using a microplate washer. Secondary detection antibody (HRP-goat anti-rabbit Fab fragment) was diluted to 1:3000 in assay diluent (1% BSA in PBS) and 25 μL/well was added to plates and incubated at RT protected from light for 1 hour. Following incubation, plates were washed four times with Wash Buffer, using a microplate washer. After removal of the final wash, 25 μL/well of 1-Step™ Ultra TMB-ELISA Substrate Solution (Thermo Fisher, No. 34028) was added and plates were incubated for 5-10 min at RT, protected from light. After development, the reaction was stopped by addition of 25 μL/well of 0.3 M HCl, and plates were read using an EnVision (Perkin Elmer) microplate reader at 450 nm. EC₅₀ values were calculated based on log concentration of the primary antibodies at optical density at 450 nm.
Twenty-five IgG4 variants were expressed in mammalian cell culture as a combinatorial library of the five light and five heavy chains. In addition, B2A-IgG4 was included as a transfection control. The conditioned media from these transient transfections were assayed for human IgG concentration. A plate-based ELISA (see Example 2) was performed in which LILRB2-His was immobilized, and binding of humanized mAb variants was detected via an anti-human IgG4 HRP-labeled secondary antibody. The parental rabbit/human chimera clone transfection served as the benchmark EC₅₀ positive control.

[3] = target: T2, Recombinant human LILRB2 protein (ELISA …); experiment: ELISA, plate-coated recombinant human LILRB2
Description: as §3
(§4) Select humanized variant antibodies were purified and tested for their ability to bind human LILRB2 by ELISA, using the method described in Example 2, and binding to HEK293T cells expressing human LILRB2, using the method described in Example 4. Representative data are shown for IgG4 variants in Table 6.

LILRB2-Fc protein [4] = target: T1, LILRB2-Fc protein; experiment: blocking ELISA, LILRB2-Fc binding to coated monomer HLA-G; Exp II
Description: as §1, §2

[5] = target: T3, Human LILRB2 on stably transduced HEK293T cells (human, UniProt Q8N423 22-597); experiment: flow cytometry, HEK293T cells stably expressing human LILRB2
T3 construct: Lentiviral transduction (G&P Biosciences LTV2992); also called HEK293T-LILRB2; LILRB2-expressing HEK293T cells
T3 sequence (Q8N423 other isoform, or with tags, fused parts or gaps limits assumed): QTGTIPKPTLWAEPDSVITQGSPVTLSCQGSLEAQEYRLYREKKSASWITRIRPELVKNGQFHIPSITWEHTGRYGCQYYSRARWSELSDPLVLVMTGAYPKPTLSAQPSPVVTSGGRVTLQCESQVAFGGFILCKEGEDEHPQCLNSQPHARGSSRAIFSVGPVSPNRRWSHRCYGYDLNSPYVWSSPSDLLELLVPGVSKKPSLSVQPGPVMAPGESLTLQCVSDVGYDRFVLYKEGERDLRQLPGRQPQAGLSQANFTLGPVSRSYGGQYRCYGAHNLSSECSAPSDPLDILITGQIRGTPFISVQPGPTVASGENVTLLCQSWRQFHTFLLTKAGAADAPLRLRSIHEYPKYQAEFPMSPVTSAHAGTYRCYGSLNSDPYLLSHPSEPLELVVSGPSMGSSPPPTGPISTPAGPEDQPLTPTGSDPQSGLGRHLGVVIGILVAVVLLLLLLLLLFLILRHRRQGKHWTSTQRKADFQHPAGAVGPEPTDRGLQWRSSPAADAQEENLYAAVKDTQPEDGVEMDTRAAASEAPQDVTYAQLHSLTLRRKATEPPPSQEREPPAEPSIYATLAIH
Description: To confirm binding of LILRB2 antibodies, flow cytometry binding assays were performed using HEK293T cells stably expressing human LILRB2 (Example 3). […] The B2A-IgG1 and B2A-IgG4 chimeras bound the LILRB2-expressing HEK293T cells, with equivalent EC₅₀ values of 0.21 nM and 0.30 nM respectively.
as §4

T1 sequence (Q8N423 22-460 limits assumed): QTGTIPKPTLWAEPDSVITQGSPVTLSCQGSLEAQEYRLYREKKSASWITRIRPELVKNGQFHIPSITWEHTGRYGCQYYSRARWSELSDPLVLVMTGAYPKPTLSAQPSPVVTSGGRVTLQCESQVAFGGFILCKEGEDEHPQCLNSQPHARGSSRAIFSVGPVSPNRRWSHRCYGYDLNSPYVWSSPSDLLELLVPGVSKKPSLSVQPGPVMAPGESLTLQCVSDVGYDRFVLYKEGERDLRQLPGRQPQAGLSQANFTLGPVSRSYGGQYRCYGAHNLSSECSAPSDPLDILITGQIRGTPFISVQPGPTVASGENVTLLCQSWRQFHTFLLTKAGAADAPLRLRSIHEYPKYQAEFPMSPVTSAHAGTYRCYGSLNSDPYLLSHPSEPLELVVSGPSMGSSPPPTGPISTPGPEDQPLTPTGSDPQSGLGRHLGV

| Binder | IC50 (LILRB2-Fc protein [1]) [ng/mL] | EC50 [2] [ng/mL] | EC50 [3] [ng/mL] | IC50 (LILRB2-Fc protein [4]) [ng/mL] | BMAX [gMFI] [5] [gMFI] | EC50 [5] [ng/mL] |
| --- | --- | --- | --- | --- | --- | --- |
| B2H4-54 (antibody, V domains shown, Humanized variant, human IgG4 / kappa) VH: EVQLLESGGGLVQPGTSLTLSCAASGFSLSTYAMSWVRQAPGKGLEWIGWIYNDGSTYYAAWAKGRFTISKDTSKTTLYLQITSLRAEDTATYFCAREGDYIGYFNIWGQGTLVTVSS VL: DIQMTQSPSSVSASVGDRVTITCQASQSIGSNLAWYQQKPGKAPKLLIYAAATLASGVPLRFSGSGSGTDFTLTISNLQPEDSATYYCQSYVSGSSDVAFGGGTKVEIK | 4040 | 2.25 | 2 | 4090 | 10400 | 0.17 |
| B2H4-41 (antibody, V domains shown, Humanized variant, human IgG4 / kappa) VH: EVQLLESGGRLVQPGTSLRLSCAVSGFSLSTYAMSWVRQAPGKGLEWIGWIYNDGSTYYAAWAKGRFTISKDTSKTTLYLQMNSLTVEDTATYFCAREGDYIGYFNIWGQGTLVTVSS VL: DIQMTQSPSSLSASVGDRVTITCQASQSIGSNLAWYQLKPGQRPKLLIYAAATLASGVPSRFKGSGSGTDFTLTISSLQSEDAATYYCQSYVSGSSDVAFGGGTEVVVK | 5780 | 3.76 | 3.05 | 6760 | 10100 | 0.28 |
| B2H4-43 (antibody, V domains shown, Humanized variant, human IgG4 / kappa) VH: EVQLLESGGRLVQPGTSLRLSCAVSGFSLSTYAMSWVRQAPGKGLEWIGWIYNDGSTYYAAWAKGRFTISKDTSKTTLYLQMNSLTVEDTATYFCAREGDYIGYFNIWGQGTLVTVSS VL: DIEMTQSPSSVSASVGDRVTLTCQASQSIGSNLAWYQQKPGQAPKLLIYAAATLASGVPSRFKGSGSGTDFTLTISSLQPEDFATYYCQSYVSGSSDVAFGGGTEVVVK | – | 4.96 | – | – | – | – |
| B2H4-24 (antibody, V domains shown, Humanized variant, human IgG4 / kappa) VH: EVQLVESGGDLATPGGSLRLSCAVSGFSLSTYAMSWVRQAPGKGLEWVGWIYNDGSTYYAAWAKGRFTISKDTSKTTVYLQMTSLRAEDTALYFCAREGDYIGYFNIWGQGTLVTVSS VL: DIQMTQSPSSVSASVGDRVTITCQASQSIGSNLAWYQQKPGKAPKLLIYAAATLASGVPLRFSGSGSGTDFTLTISNLQPEDSATYYCQSYVSGSSDVAFGGGTKVEIK | 7010 | 3.23 | 2.81 | 7500 | 10500 | 0.35 |
| B2H4-55 (antibody, V domains shown, Humanized variant, human IgG4 / kappa) VH: EVQLLESGGGLVQPGTSLTLSCAASGFSLSTYAMSWVRQAPGKGLEWIGWIYNDGSTYYAAWAKGRFTISKDTSKTTLYLQITSLRAEDTATYFCAREGDYIGYFNIWGQGTLVTVSS VL: DVVMTQTPSSVSAALGGTVTIKCQASQSIGSNLAWYQLKPGQRPKLLIYAAATLASGGSSRFKGSGSGTDFTLTISSLEPADAATYYCQSYVSGSSDVAFGGGTEVVVK | 6890 | – | 2.82 | 7170 | 10800 | 0.33 |
| B2H4-52 (antibody, V domains shown, Humanized variant, human IgG4 / kappa) VH: EVQLLESGGGLVQPGTSLTLSCAASGFSLSTYAMSWVRQAPGKGLEWIGWIYNDGSTYYAAWAKGRFTISKDTSKTTLYLQITSLRAEDTATYFCAREGDYIGYFNIWGQGTLVTVSS VL: DVVMTQSPSSVSASLGDRVTITCQASQSIGSNLAWYQQKPGQAPKLLIYAAATLASGVPSRFKGSGSGTDFTLTITSLQPADFATYYCQSYVSGSSDVAFGGGTKVEIK | – | 5.37 | – | – | – | – |
| B2H4-44 (antibody, V domains shown, Humanized variant, human IgG4 / kappa) VH: EVQLLESGGRLVQPGTSLRLSCAVSGFSLSTYAMSWVRQAPGKGLEWIGWIYNDGSTYYAAWAKGRFTISKDTSKTTLYLQMNSLTVEDTATYFCAREGDYIGYFNIWGQGTLVTVSS VL: DIQMTQSPSSVSASVGDRVTITCQASQSIGSNLAWYQQKPGKAPKLLIYAAATLASGVPLRFSGSGSGTDFTLTISNLQPEDSATYYCQSYVSGSSDVAFGGGTKVEIK | 7040 | 4.6 | 2.84 | 7290 | 10900 | 0.31 |
| B2H4-51 (antibody, V domains shown, Humanized variant, human IgG4 / kappa) VH: EVQLLESGGGLVQPGTSLTLSCAASGFSLSTYAMSWVRQAPGKGLEWIGWIYNDGSTYYAAWAKGRFTISKDTSKTTLYLQITSLRAEDTATYFCAREGDYIGYFNIWGQGTLVTVSS VL: DIQMTQSPSSLSASVGDRVTITCQASQSIGSNLAWYQLKPGQRPKLLIYAAATLASGVPSRFKGSGSGTDFTLTISSLQSEDAATYYCQSYVSGSSDVAFGGGTEVVVK | 8110 | 3.85 | 3.27 | 9050 | 10700 | 0.37 |
| B2H4-25 (antibody, V domains shown, Humanized variant, human IgG4 / kappa) VH: EVQLVESGGDLATPGGSLRLSCAVSGFSLSTYAMSWVRQAPGKGLEWVGWIYNDGSTYYAAWAKGRFTISKDTSKTTVYLQMTSLRAEDTALYFCAREGDYIGYFNIWGQGTLVTVSS VL: DVVMTQTPSSVSAALGGTVTIKCQASQSIGSNLAWYQLKPGQRPKLLIYAAATLASGGSSRFKGSGSGTDFTLTISSLEPADAATYYCQSYVSGSSDVAFGGGTEVVVK | 7640 | 4.56 | 2.88 | 8290 | 10200 | 0.35 |
| B2H4-45 (antibody, V domains shown, Humanized variant, human IgG4 / kappa) VH: EVQLLESGGRLVQPGTSLRLSCAVSGFSLSTYAMSWVRQAPGKGLEWIGWIYNDGSTYYAAWAKGRFTISKDTSKTTLYLQMNSLTVEDTATYFCAREGDYIGYFNIWGQGTLVTVSS VL: DVVMTQTPSSVSAALGGTVTIKCQASQSIGSNLAWYQLKPGQRPKLLIYAAATLASGGSSRFKGSGSGTDFTLTISSLEPADAATYYCQSYVSGSSDVAFGGGTEVVVK | 6520 | 3.61 | 2.3 | 7120 | 10500 | 0.31 |
| B2H4-11 (antibody, V domains shown, Humanized variant, human IgG4 / kappa) VH: QVQLEESGGRVVQPGRSLRLSCAASGFSLSTYAMSWVRQAPGKGLEWIGWIYNDGSTYYAAWAKGRFTISKDTSKTTVFLQMNSLKPDDTATYFCAREGDYIGYFNIWGQGTLVTVSS VL: DIQMTQSPSSLSASVGDRVTITCQASQSIGSNLAWYQLKPGQRPKLLIYAAATLASGVPSRFKGSGSGTDFTLTISSLQSEDAATYYCQSYVSGSSDVAFGGGTEVVVK | 7310 | 4.2 | 3.98 | 7990 | 9840 | 0.32 |
